The assay concerns the target human MN protein, entire extra-cellular domain with a C-terminal histag, expressed in HKB-11 cells (human), Q16790. In words: SPR (BIAcore 3000), IgG captured on anti-human IgG Fc, soluble MN as analyte, 1:1 Langmuir fit. As to conditions: remark: other sources report otherwise. Background: SPR reads the build-up and loss of mass on a sensor chip optically.

B1: 3a4 full-length human IgG1 antibody (antibody)
chain 1: QVELVESGGGLVQPGGSLRLSCAASGFTFSDYSINWVRQAPGKGLEYVSNISYSGSSTYYADSVKGRFTISRDNSKNTLYLQMNSLRAEDTAVYYCARFKYSGGSDSWGQGTLVTVSS
chain 2: DIELTQPPSVSVAPGQTARISCSGDNLPDFYVHWYQQKPGQAPVLVISEDNKRPSGIPERFSGSNSGNTATLTISGTQAEDEADYYCSTYGYTYSYSVFGGGTKLTVL
The molecule B1 showed a Kd of 1 nM.

A word on the Kd: it is the equilibrium constant for the complex coming apart. A higher Kd goes with a looser complex.

The record behind these values is patent US20100129315A1.
